Measured values taken from the DeepSol protein solubility set.

Test: soluble on expression in E. coli; label from the status in PepcDB or PDB records

Sequence	soluble on expression in E. coli
MAHHHHHHMTDVAEGHQSYANAFISEGDRTSAVRYLDLFLRLYEEYCDVAEVEANSRVLQAATVMQSNSHAPDLLSYVVSAAALGIGGTRALAPALASLPLKVLNLSECYLGDAGLRVLAETLSASSHSTGGLRVLELRGISASDGSSVALLVTALRSLQLLDVSSNRFGTRPPGFALLCAAMGYHPALREVHIADNMVSGCCESCVGAIAEWLVKASRACMLQHVDLRFNTLGLYRRGLYNTVVDGKEVQCTLYGFYPLVDALLLNNSIEVLEVGNNGFPPGVLDAIEAKLAVNKRTKKALQEYYTNHIDR	not soluble
MGSTGETQITPTHISDEEANLFAMQLASASVLPMILKSALELDLLEIIAKAGPGAQISPIEIASQLPTTNPDAPVMLDRMLRLLACYIILTCSVRTQQDGKVQRLYGLATVAKYLVKNEDGVSISALNLMNQDKVLMESWYHLKDAVLDGGIPFNKAYGMTAFEYHGTDPRFNKVFNKGMSDHSTITMKKILETYTGFEGLKSLVDVGGGTGAVINTIVSKYPTIKGINFDLPHVIEDAPSYPGVEHVGGDMFVSIPKADAVFMKWICHDWSDEHCLKFLKNCYEALPDNGKVIVAECILPVAPDSSLATKGVVHIDVIMLAHNPGGKERTQKEFEDLAKGAGFQGFKVHCNAFNTYIMEFLKKV	soluble
SLSTVELSGTVVKQGYLAKQGHKRKNWKVRRFVLRKDPAFLHYYDPSKEENRPVGGFSLRGSLVSALEDNGVPTGVKGNVQGNLFKVITKDDTHYYIQASSKAERAEWIEAIKKLT	soluble
SATFVSELEAAKKNLSEALGDNVKQYWANLKLWFKQKISKEEFDLEAHRLLTQDNVHSHNDFLLAILTRCQILVSTPDGAGSLPWPGGSAAKPGKPKGKKKLSSVRQKFDHRFQPQNPLSGAQQFVAKDPQDDDDLKLCSHTMMLPTRGQLEGRMIVTAYEHGLDNVTEEAVSAVVYAVENHLKDILTSVVSRRKAYRLRDGHFKYAFGSNVTPQPYLKNSVVAYNNLIESPPAFTAPCAGQNPASHPPPDDAEQQAALLLACSGDTLPASLPPVNMYDLFEALQVHREVIPTHTVYALNIERIITKLWHPNHEELQQDKVHRQRLAAKEGLLLC	soluble
MLESMTGYGSAERSEKGMKVLVELRSVNNRFAEIGVKLPRQLLSWELEVRELIRASFQRGKISAFVQLQLEEAEALPVTVNPSKVRGYKALLETVRREAEIEAPVTLDHVLRFSEIFEPDHTILEHPDEIWPIAQSALIEAIGNLKEMRRKEGEELAIDFLSRIDEIERTLKEIKEIAAGNLETIRKRLASKISAIAGCDVEYSKDRLEMEIVMAAERLDITEECIRFSSHNKFFIEELNNSSSGSGRKLNFLLQEQLREANTIASKSQNADISQKVVHIKEELEKVREQLQNIE	soluble
MLISERFGIKGRADAVRRGMPVELKTGKNLKRSPRFQDKVQAACYGLLLADDIADPPDTGTLLYTKNSALDRSEESGDLSPAKEFSIGPGFLKYVLRVRNEIAAAEYDMSVPTGFEADANCDYCFEQDTCMVVSGRLDQESKAGQLGEPLPEPERAYFERLYRAIEEERREVHAEYRKLWEQSAAERADDDRALVDLDPLGREPLDGGRWALSARRTSDAVSKIREGDRVLASDGHPTQGTAELATVRHLDDEIVVVADEPFELRRIDVYPSELGVDRQLEHHHHHH	soluble
MARKGTTPWHESREMHTQDDADSSLKEQEKTTNKKEQTTAPPEKKLPTIPGKLPKRSVEPPEESRDQKPAGNKPNLKKSPSNPRIPPGGSHPRKKPKVPNRDPSGKHVNSDKKKPSAEAHDKESLSSPPQTDAGKETTKESASTYGASWKSSKPTLKADLKAMEDYITKMPNFHGYICREDAAQILKHPGDWLVRLSVPPSNDQDKKNKAQNLAKSVERTKGHKSTMQKVFVISVLCKGKALSPAKSNNRNLVIKTNNGKFSIDSVHWLVKLKDLFSHYQGTSAVHKNGEFQLLNPISLSKWEFQHEDTELLAKKLGEGAFGEVRVGRLTTKDPKKKLVEVAVKMLKSSADSVTRDQVEELLHETRIMRKLDHPNVLRSYGVAVLREPLYLMIELCSNGALREYLKENHKTITLADKINFVLGSARGVAYLHSQRILHRDLAVRNILLTEDKTPKVSDFGLAELTDRYEMKEHCKIPVRYLAPETLELFIFTPKTDVFSFGCVIWEIYENGQQPHDGKNAQTIRAQVKKREFLKLSSSAPEALRRLVAEKVFVADPENRCSMTSIVQCVETAEKTVK	soluble
MGSDKIHHHHHHMSFTTWTPPAVASERQPFALTLWRAVEAQHVVSTMPLVDSLDEQAVLEAVLDAGKPAVPAEARHLHYLLFTPFRYPPSPWGSRFRAGQDPGVFYGAEEIRTACAELGYWRWRFLNDSPALPRIDARAQTLFQVSVRTEGVALDTPPFDRDSAQWTDPDSHEACQAFGRIAREAGIGLIRYTSVRDPGHGPCGAVMTPRAFDHPLPLATTTWMLTVRRDRVIWQRDDLQQRDSFEFAASLWQRTSERSPEG	not soluble
MANDIDRAGVAKAYARWAPIYDLVFGKVFDSGRQSTIAVADAIGGRVLDVGVGTGLSLSDYSKTTRLCGVDISEPMLRKAHERVRTLNLSNVDVLAVMDAKNLAFPANYFDAVVAQYVITAVPDPEATLDDFIRVLKPGGELILVNHIGAESGPRKLFELAFSPIARRLGWRPEFPWQRLVNWAARHRGVELAERRPMPPMGHFSLIRYRKLLEHHHHHH	not soluble
MGSDKIHHHHHHMHLAAEQMNLSQPAVSKMLKEIEGLLGFQVFERLPRNMPVTALGEHVIRYAQRVLNDAKHFVEDIEILRLGGHGFLKVGGIFAATAVVIPNSIIEIKKQWPLLSIDVVEQTSDHLMEMLSEHTLDLAIGRFTDVTQSQFFDFQPLGPEPFCIVVNNAHPCAQKKFCTLEELLKWPWVLYPKGTPIRERMEGAFARAKVKIPLNTVNTMSMQTFLQILKGAPMVGMLPEAMVIDQVKEGQLQILETDLILDAQDYGILTRKDEPVSDIAAAFINILLKNAKRK	not soluble
MKALLSIEMDMQVPFHDVDSMGITWHGNYLRYFEVARCKLLDELGYNYRQMRASNYAWPIIDVQIKYVKPSTFEQHITVRAELVEWENRLKINYQIRDTATGERITKGYTIQAAVDMTSLEHHHHHH	not soluble
MRSYFLIFILILLLEIREVWSWKAPYLRDRPRGLGLLQLPTGISDERSGPFLPGLYIAGNKVNQKPQTVPDVHLPGQPADFTGRSAFNPFTHMVSAVYAEDLSDGWGAGMAVNGVNGHGLNVRKNFDSYADVPLNLNDGMYQPFIAAATVGGEYDLSKMREVSGSLDLPIPGVNELFDLNARILVKTFLLHNSAIEFPLTLSDPNERAPYNFRYAVWAPDRHMAYGHVVPNVNPYVIGKDKIMERLMQNRLNPTMVG	not soluble
MLTVALLALLCASASGNAIQARSSSYSGEYGSGGGKRFSHSGNQLDGPITALRVRVNTYYIVGLQVRYGKVWSDYVGGRNGDLEEIFLHPGESVIQVSGKYKWYLKKLVFVTDKGRYLSFGKDSGTSFNAVPLHPNTVLRFISGRSGSLIDAIGLHWDVYPTSCSRC	soluble
MFQAQHLTKSFGDLVLFEDLSFSIERGEKVGLIARNGNGKTTLMNILTGIDSPDSGEVIYQNGIRRAYLPQLPQVLPGSTVLETCFGHNDEMTSLIAQWEEASARGDGKRMEELLPEMDALGAWEYEQRAREILTRLHLDDLHCTTDNLSGGELKRIALAGTLIGNPELLFLDEPTNHLDLDVIEWLEGYLSHQQIGLLLVTHDRYFLDRVCNRILELDNKQLYAYKGNYEYYLNKREERLEATERETSRAANLLRREAEWMHRRPQARGTKAKSRIDAFYELKEKAQPRHRDETLHLSEQGRYIGNKIFEAHKVCKAFGDRTILSDFDYIFSRYDKVGIVGPNGVGKTTFLRLLLGEEKPDSGYFDVGETVRFGYYSQKGMQFDENKRVIEAVQDIAEVIRNEKDGTTLSASALLTQFLFPPEKQYTPIHKLSGGEQRRLYLCTVLMKNPNFLILDEPTNDLDILTLNVLENYLSEFKGCVLVVSHDRFFMDKVVNHLFTFEGNGIVKDFPGNYTQYREYKQQEEAERQTVESSPSTRKAESEKPRTDAAERPRKLTFKEKQELERLEAELPKLEKEKAELESRMSSGTMATDELLTAGDRIAALIEEIDSKGMRWLELSDI	not soluble
MGQTLFDKVWNRHVLYGKLGEPQLLYIDLHLIHEVTSPQAFEGLRLQNRKLRRPDLTFATLDHNVPTIDIFNIKDEIANKQITTLQKNAIDFGVHIFDMGSDEQGIVHMVGPETGLTQPGKTIVCGDSHTATHGAFGAIAFGIGTSEVEHVFATQTLWQTKPKN	not soluble
PVPATPILQLEECCTHNNSATLSWKQPPLSTVPADGYILELDDGNGGQFREVYVGKETMCTVDGLHFNSTYNARVKAFNKTGVSPYSKTLVLQTSEG	soluble
MGEAPAVLVDHPENGHSNGVCVKSEPENTEITVDVGDRIFLIGGTHERNNFSIGVQIYDKISNNWFSPIVLGTGPKPSKGYSAFVLEQGRILVIKKGSPRNDSIWFLEVDSPYVREQKKLLRKEVVAWSKGVRGNAEKPIVISGPSGVGKGTLISMLMKEFPSMFGFSVSHTTRSPRSMEMDGVHYHFADKKVMEKEIKDGKFLEFASVHGNLYGTSIESVEAVTDSGKRCILDIDVQGARSVRASSLDAIFIFVCPPSMKELEDRLRARGTETEEQIQKRLRNAEAEIKEGISSGIFGLILYNDNLEECYKKLKNLLGLDGLAHVNGVEIEGINLPIEYAVSKMEDKIIIQETGKETRNKIVVDISSLNGGAPGRTRGILVDAIKF	soluble
MTGNLVTKNSLTPDVRNGIDFKIADLSLADFGRKELRIAEHEMPGLMSLRREYAEVQPLKGARISGSLHMTVQTAVLIETLTALGAEVRWASCNIFSTQDHAAAAVVVGPHGTPDEPKGVPVFAWKGETLEEYWWAAEQMLTWPDPDKPANMILDDGGDATMLVLRGMQYEKAGVVPPAEEDDPAEWKVFLNLLRTRFETDKDKWTKIAESVKGVTEETTTGVLRLYQFAAAGDLAFPAINVNDSVTKSKFDNKYGTRHSLIDGINRGTDALIGGKKVLICGYGDVGKGCAEAMKGQGARVSVTEIDPINALQAMMEGFDVVTVEEAIGDADIVVTATGNKDIIMLEHIKAMKDHAILGNIGHFDNEIDMAGLERSGATRVNVKPQVDLWTFGDTGRSIIVLSEGRLLNLGNATGHPSFVMSNSFANQTIAQIELWTKNDEYDNEVYRLPKHLDEKVARIHVEALGGHLTKLTKEQAEYLGVDVEGPYKPDHYRY	soluble
VKVNPSVKPICDKCRLIRRHGRVMVICSDPRHKQRQG	not soluble
QLVLTQSSSASFSLGASAKLTCTLSSQHSTYTIEWYQQQPLKPPKYVMDLKQDGSHSTGDGIPDRFSGSSSGADRYLSISNIQPEDEAMYICGVGDTIKEQFVYVFGGGTKVTVLGEPKSTPTLTVFPPSSEELKENKATLVCLISNFSPSGVTVAWKANGTPITQGVDTSNPTKEGNKFMASSFLHLTSDQWRSHNSFTCQVTHEGDTVEKSLSPAECL	soluble
MGSDKIHHHHHHMSKLAAFLGRAIPTHQQKQSSHLGDRTLYVGASDIAGCPRKAALGKQNPTGHDIKTLLRFSRGHAAQAMYADFFRTGGALFEEEVEVRHPAIPEIRCHIDFLFYANRQTKRLHIVEMKSTDGIPDEPYASWVDQLHVQMGLLQLTLDPAVEIGGSILVVDLNAGSYHEFNSYTPNRLVFDQLVEKGKHILAAARGECAPRTEPGILCGYCPFRTGCPSHAVALDLPREILDTGRKYLELNEQKKALENRLDVLKNDILTFADGTFKGASDGILINVTSVADSTTIDSYKLKRNYPDIYDQVTKPKSGYVKLEIKPFTPLAAQAA	not soluble
